Measurements: PMC5651854, “Reconstitution of human shelterin complexes reveals unexpected stoichiometry and dual pathways to enhance telomerase processivity” (Nature Communications, 2017)

B1: Human TRF1, P54274-1 1-439 (natural protein)
chain: MAEDVSSAAPSPRGCADGRDADPTEEQMAETERNDEEQFECQELLECQVQVGAPEEEEEEEEDAGLVAEAEAVAAGWMLDFLCLSLCRAFRDGRSEDFRRTRNSAEAIIHGLSSLTACQLRTIYICQFLTRIAAGKTLDAQFENDERITPLESALMIWGSIEKEHDKLHEEIQNLIKIQAIAVCMENGNFKEAEEVFERIFGDPNSHMPFKSKLLMIISQKDTFHSFFQHFSYNHMMEKIKSYVNYVLSEKSSTFLMKAAAKVVESKRTRTITSQDKPSGNDVEMETEANLDTRKSVSDKQSAVTESSEGTVSLLRSHKNLFLSKLQHGTQQQDLNKKERRVGTPQSTKKKKESRRATESRIPVSKSQPVTPEKHRARKRQAWLWEEDKNLRSGVRKYGEGNWSKILLHYKFNNRTSVMLKDRWRTMKKLKLISSDSED
B2: mCherry-TIN2S (natural protein)
chain: MATPLVAGPAALRFAAAASWQVVRGRCVEHFPRVLEFLRSLRAVAPGLVRYRHHERLCMGLKAKVVVELILQGRPWAQVLKALNHHFPESGPIVRDPKATKQDLRKILEAQETFYQQVKQLSEAPVDLASKLQELEQEYGEPFLAAMEKLLFEYLCQLEKALPTPQAQQLQDVLSWMQPGVSITSSLAWRQYGVDMGWLLPECSVTDSVNLAEPMEQNPPQQQRLALHNPLPKAKPGTHLPQGPSSRTHPEPLAGRHFNLAPLGRRRVQSQWASTRGGHKERPTVMLFPFRNLGSPTQVISKPESKEEHAIYTADLAMGTRAASTGKSKSPCQTLGGRALKENPVDLPATEQKE
B3: C8 (mixed)
DNA 1: GACCATGCTTAGGGTTAGGGTTATCATACAAGTTAGGGTTAGGG
DNA 2: TTGTATGATAACCCTAACCCTAAGCATGGTC
B4: Human TRF2, Q15554 1-542 (natural protein)
chain: MAAGAGTAGPASGPGVVRDPAASQPRKRPGREGGEGARRSDTMAGGGGSSDGSGRAAGRRASRSSGRARRGRHEPGLGGPAERGAGEARLEEAVNRWVLKFYFHEALRAFRGSRYGDFRQIRDIMQALLVRPLGKEHTVSRLLRVMQCLSRIEEGENLDCSFDMEAELTPLESAINVLEMIKTEFTLTEAVVESSRKLVKEAAVIICIKNKEFEKASKILKKHMSKDPTTQKLRNDLLNIIREKNLAHPVIQNFSYETFQQKMLRFLESHLDDAEPYLLTMAKKALKSESAASSTGKEDKQPAPGPVEKPPREPARQLRNPPTTIGMMTLKAAFKTLSGAQDSEAAFAKLDQKDLVLPTQALPASPALKNKRPRKDENESSAPADGEGGSELQPKNKRMTISRLVLEEDSQSTEPSAGLNSSQEAASAPPSKPTVLNQPLPGEKNPKVPKGKWNSSNGVEEKETWVEEDELFQVQAAPDEDSTTNITKKQKWTVEESEWVKAGVQKYGEGNWAAISKNYPFVNRTAVMIKDRWRTMKRLGMN
B5: Human TRF2 (natural protein, UniProt Q15554 1-542, looked up)
chain: B4 chain
notes: called full-length in the discussion; predicted dimer mass printed as 119 kDa; source: Tni insect cells (baculovirus), alone or co-expressed with other shelterin proteins, purified (final SEC)
B6: ybbR-tagged human TRF2 (natural protein, UniProt Q15554 1-542, looked up)
chain: B4 chain
modifications: Cy3 (from CoA-Cy3, by Sfp phosphopantetheinyl transferase) on the ybbR tag
notes: also called TRF2 (ybbR tag); source: Tni insect cells (baculovirus), co-expressed, purified as complex, labelled with CoA-Cy3 by Sfp

What was measured:
Human TIN2 (human) = Human TIN2 (human) (UniProt Q9BSI4); experiment: SEC-MALS; purified proteins or co-expressed, purified complexes at 1 mg ml^−1, 100 µl on Superose 6 Increase 10/300 GL, 0.5 ml min^−1, 25 °C, 50 mM HEPES pH 7.5, 300 mM NaCl, 1 mM TCEP
mCherry-TIN2S, Q9BSI4-2 = experiment: LacI-LacO array fluorescence colocalization in cells; settings: U2OS 2-6-3 cell line; n > 50 nuclei per construct from 3 biological replicates; parent: est. 0.90; read off a plot
[1] = molecular target: T1, Human TRF1 (human), P54274; experiment: SEC-MALS; purified proteins or co-expressed, purified complexes at 1 mg ml^−1, 100 µl on Superose 6 Increase 10/300 GL, 0.5 ml min^−1, 25 °C, 50 mM HEPES pH 7.5, 300 mM NaCl, 1 mM TCEP; settings: remark: other sources report otherwise
T1 chain: B1 chain

eGFP–TPP1–LacI (human) = eGFP–TPP1–LacI (human) (UniProt Q96AP0); experiment: LacI–LacO array recruitment (fluorescence colocalisation); eGFP–TPP1–LacI constructs tethered to a LacO array in U2-OS 2-6-3 cells, co-transfected with mCherry-TIN2S; fixed 24 h after transfection; fraction of nuclei with mCherry at the single GFP focus
Sequence of eGFP–TPP1–LacI (human) (Q96AP0 whole entry): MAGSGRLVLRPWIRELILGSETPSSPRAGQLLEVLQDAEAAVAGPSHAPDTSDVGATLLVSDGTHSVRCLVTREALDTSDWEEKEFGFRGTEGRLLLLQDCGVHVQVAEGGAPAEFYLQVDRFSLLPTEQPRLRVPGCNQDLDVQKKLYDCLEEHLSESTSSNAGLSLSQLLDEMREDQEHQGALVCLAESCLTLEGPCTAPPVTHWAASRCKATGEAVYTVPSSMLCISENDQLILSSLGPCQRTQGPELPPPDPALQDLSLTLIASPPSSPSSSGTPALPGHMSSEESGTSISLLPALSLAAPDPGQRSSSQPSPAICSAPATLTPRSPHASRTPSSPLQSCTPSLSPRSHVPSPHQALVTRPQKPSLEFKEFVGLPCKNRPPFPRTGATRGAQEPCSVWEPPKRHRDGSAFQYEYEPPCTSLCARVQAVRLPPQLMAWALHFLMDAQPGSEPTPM

[2] = molecular target: eGFP–TPP1_(480–544)–LacI (human); experiment: as above
Sequence of eGFP–TPP1_(480–544)–LacI (human) (Q96AP0 whole entry): as above

TRF2 = TRF2 (Homo sapiens, UniProt A0ACI8RU48 1-541); experiment: EMSA (agarose); 500 nM protein; some smearing; Agarose EMSA: 50 mM Tris-HCl pH 8.0, 150 mM KCl, 2 mM MgCl2, 1 mM DTT, 10% glycerol, 0.5 mg/ml BSA, 0.02 mg/ml carrier dsDNA, 30 min 23 C (gel at 4 C); FP: same buffer without carrier DNA, 23 C; settings: protein: recombinant; tags: 6xHis N-term; chain copies: 2; label: 5'-32P on long strand (EMSA); 3' overhang 13 nt
[3] = molecular target: T2, Human TRF2 (human), Q15554; experiment: SEC-MALS; purified proteins or co-expressed, purified complexes at 1 mg ml^−1, 100 µl on Superose 6 Increase 10/300 GL, 0.5 ml min^−1, 25 °C, 50 mM HEPES pH 7.5, 300 mM NaCl, 1 mM TCEP; settings: remark: other sources report otherwise
T2 chain: B4 chain

Human TIN2 = molecular target: T3, Human TIN2 (human, UniProt Q9BSI4-2 1-354); experiment: as above; settings: both partners purified
T3 construct: cDNA cloned into pFastBac1; called full-length in the discussion; not shown: His6, N-terminal, cleaved; MBP, N-terminal, cleaved
T3 sequence (looked up): B2 chain

ybbR-tagged human TIN2 = molecular target: T4, ybbR-tagged human TIN2 (human, UniProt Q9BSI4-2 1-354, Cy3 (from CoA-Cy3, by Sfp phosphopantetheinyl transferase) on the ybbR tag); experiment: fluorescence intensity of Cy3-labelled ybbR-tagged subunits on SDS-PAGE; purified complexes (5 µM) with one ybbR tag on each subunit labelled with CoA-Cy3 (10 µM) by Sfp (1 µM), 50 mM HEPES pH 7.5, 300 mM KCl, 10 mM MgCl2, 1 mM TCEP, overnight at 4 °C; band intensities normalised to TPP1; settings: both partners purified
T4 construct: The methods put the ybbR tag at the C-terminus of TIN2; the results speak of an N-terminal tag on each protein; also called TIN2 (ybbR tag); source: Tni insect cells (baculovirus), co-expressed, purified as complex, labelled with CoA-Cy3 by Sfp; not shown: His6, N-terminal, cleaved; MBP, N-terminal, cleaved
T4 sequence (looked up): B2 chain

Row | Molecule | other: fraction of colocalization (mCherry-TIN2S, Q9BSI4-2) | other results
1 | Human TPP1 (from UniProt Q96AP0 1-458) (natural protein) |  | stoichiometry N (TPP1 per TIN2) (Human TIN2 (human)): 1
2 | eGFP–TPP1–LacI (from UniProt Q96AP0) NAAIRS 480 (six residues starting at 480 replaced by NAAIRS) | 0.92 | 
3 | eGFP–TPP1–LacI (from UniProt Q96AP0) NAAIRS 486 (six residues starting at 486 replaced by NAAIRS) | 0.94 | 
4 | eGFP–TPP1–LacI (from UniProt Q96AP0) NAAIRS 492 (six residues starting at 492 replaced by NAAIRS) | 0.93 | 
5 | eGFP–TPP1–LacI (from UniProt Q96AP0) NAAIRS 498 (six residues starting at 498 replaced by NAAIRS) | 0.88 | 
6 | eGFP–TPP1–LacI (from UniProt Q96AP0) NAAIRS 504 (six residues starting at 504 replaced by NAAIRS) | 0.92 | 
7 | eGFP–TPP1–LacI (from UniProt Q96AP0) NAAIRS 510 (six residues starting at 510 replaced by NAAIRS) | 0.88 | 
8 | eGFP–TPP1–LacI (from UniProt Q96AP0) NAAIRS 516 (six residues starting at 516 replaced by NAAIRS) | 0.93 | 
9 | eGFP–TPP1–LacI (from UniProt Q96AP0) NAAIRS 522 (six residues starting at 522 replaced by NAAIRS) | 0.87 | 
10 | eGFP–TPP1–LacI (from UniProt Q96AP0) NAAIRS 534 (six residues starting at 534 replaced by NAAIRS) | 0.93 | 
11 | eGFP–TPP1–LacI (from UniProt Q96AP0) NAAIRS 539 (six residues starting at 539 replaced by NAAIRS) | 0.96 | 
12 | B1 |  | stoichiometry N (subunits in the oligomer) [1]: 2
13 | B2 |  | fraction of LacO sites with colocalisation (eGFP–TPP1–LacI (human)): 90%; fraction of LacO sites with colocalisation [2]: 90%
14 | B3 |  | binding result (TRF2): binds
15 | B4 |  | stoichiometry N (subunits in the oligomer) [3]: 2
16 | B5 |  | stoichiometry N (Human TIN2): 2 TRF2 per TIN2
17 | B6 |  | stoichiometry N (ybbR-tagged human TIN2): 2 TRF2 per TIN2
